# Entries after “also recorded” stand apart in the source; their conditions may differ. Where a SMILES comes first, the peptide text is derived from it. The star is where a group is joined. Cbz = O=C(OCc1ccccc1)*
# Tests used:
# GFP-TDP43CTF [1] = test: Bafilomycin A1 or MG132 treatment of cells co-expressing reporter and Construct 3, immunoblot; assay type: cell-based, human; conditions: immunoblot (FIG. 10)
# Excerpt: Cells were transfected either with the reporter construct GFP-TDP43FL (lane 2) or GFP-TDP43CTF (lanes 3-8), and co-transfected with nucleic acids encoding Construct 3 (lanes 4-8).
# We next investigated the mechanism of the fusion protein in reducing aggregation. HEK293 cells were transfected with the GFP-TDP43FL or GFP-TDP43CTF reporter construct, either alone or with Construct 3 (JB1-scFv (3B12A)), as well as with BFA (Bafilomycin A1, an inhibitor of the late phase of autophagy) or MG132 (proteasome inhibitor).
# GFP-TDP43CTF [2] = target: T1, GFP-TDP43CTF (Homo sapiens, UniProt Q13148); test: Fluorescence microscopy of GFP-TDP43CTF aggregation (GFP foci) in transfected HEK293 cells; assay type: cell-based; conditions: for reduction of TDP-43 aggregation: GFP-TDP43CTF reporter, vs reporter alone (FIG. 8/9, Table 12); for aggregation of GFP-TDP43CTF reporter in cells (in words): HEK293 cells, vs reporter alone
# T1 construct: expressed in transfected cells; host or cells: HEK293
# Description: (§1) Expression vector plasmids encoding various protein constructs were transfected into HEK293 cells with Lipofectamine 3000 transfection reagent (Thermo Fisher Scientific). Cell lysates were analyzed for expressed proteins using immunoblot assays. Samples of culture media were centrifuged to remove debris prior to analysis. Cells were lysed in a lysis buffer (10 mM Tris-HCl, pH 8.0, 150 mM NaCl, 10 mM EDTA, 2% SDS) containing 2 mM PMSF and protease cocktail (Complete Protease Inhibitor Cocktail; Sigma). After brief sonication, the samples were analyzed for expressed proteins using immunoblot assays. For immunoblot analysis, samples were boiled in an SDS-sample buffer and run on polyacrylamide electrophoresis. Thereafter, the separated protein bands were transferred to a PVDF membrane.
# In some instances, aggregation of TDP-43 (full-length of C-terminal fragment) GFP reporter constructs (described below) were detected in vivo using fluorescence microscopy. Cultured cells expressing the reporter constructs as well as the fusion protein comprising the J domain and TDP-43-binding domain were washed with PBS and fixed with 4% paraformaldehyde in PBS for 5 minutes. After three 5-min washes with PBS, nuclear DNA was stained with DAPI. Percentage of cells containing TDP-43 (GFP foci) in transfected cells was counted.
# We first investigated whether the fusion molecule of the present invention targeting TDP-43 ameliorates its aggregation in cultured cells. To this end, we generated GFP-based reporter constructs GFP-TDP43 and GFP-TDP43, wherein GFP was fused at its C-terminus to either the full-length human TDP-43 protein or the C-terminal fragment TDP-43 which is known to form cytoplasmic aggregation and cytotoxicity (See Table 8 below). HEK293 cells were cultured and transfected with the plasmids encoding the full-length TDP43 or the C-terminal fragment of TDP43, containing the C-terminal 207 amino acids TDP-43 (amino acids 208-414 of human TDP-43) as a GFP fusion [GFP-TDP43FL (SEQ ID NO: 101) or GFP-TDP43CTF (SEQ ID NO: 102)].
# GFP-TDP43FL [3] = target: T2, GFP-TDP43FL (Homo sapiens, UniProt Q13148); test: Fluorescence microscopy of GFP-TDP43FL aggregation (GFP foci) in transfected HEK293 cells; assay type: cell-based; conditions: vs negative controls and construct 2 (FIG. 7)
# T2 construct: expressed in transfected cells; host or cells: HEK293
# Description: as §1
# In some instances, aggregation of TDP-43 (full-length of C-terminal fragment) GFP reporter constructs (described below) were detected in vivo using fluorescence microscopy. Cultured cells expressing the reporter constructs as well as the fusion protein comprising the J domain and TDP-43-binding domain were washed with PBS and fixed with 4% paraformaldehyde in PBS for 5 minutes. After three 5-min washes with PBS, nuclear DNA was stained with DAPI. Percentage of cells containing TDP-43 (GFP foci) in transfected cells was counted. […]
# GFP-TDP43CTF [4] = target: T1, GFP-TDP43CTF; test: Immunoblot (anti-GFP) of reporter level in cell extracts; assay type: cell-based; conditions: vs negative control
# Description: as §1
# (§2) Expressed proteins were detected using a chemiluminescent signal. Briefly, blots were reacted with a primary antibody capable of binding the particular epitope (e.g., GFP). After rinsing away the unreacted primary antibody, a secondary, enzyme-linked antibody (e.g., HRP-linked anti-lgG antibody) was allowed to react with the primary antibody molecules bound to the blots. Following rinsing, a chemiluminescent reagent was added, and the resultant chemiluminescent signals in the blots were captured on X-ray film.
# GFP-TDP43FL [5] = target: T2, GFP-TDP43FL; test: as above; assay type: cell-based; conditions: cell extracts (FIG. 5)
# Description: as §1, §2
# [6] = assay type: in vivo, mouse; conditions: C57BL/6J mice, AAV rh10 vector encoding Construct 3 vs control, three weeks after ICV or IT injection; data not shown
# human TDP-43ΔNLS = target: T3, human TDP-43ΔNLS (Homo sapiens, UniProt Q13148, K82A/K84A/R83A); test: Efficacy in rNLS8 (NEFH-tTA x hTDP-43ΔNLS) mouse model of ALS, ICV AAV rh10; assay type: in vivo; conditions: rNLS8 mice (Dox −)
# T3 construct: expressed in transfected cells; host or cells: transgene in NEFH-tTA x hTDP-43ΔNLS bigenic mice (rNLS mice), in vivo
# Description: Vectors prepared above were tested on TDP-43-asociated pathologies of a novel AAV NEFH-tTA×hTDP-43ΔNLS bigenic mice (rNLS mice). This model has a doxycycline (DOX)-repressible construct expressing pathogenic TDP-43 (human TDP-43ΔNLS). Upon removal of DOX, TDP-43ΔNLS expression causes a rapid and progressive deterioration of the animals, causing severe weight loss and, generally within 6-8 weeks, death. We tested the efficacy of Construct 3 (JB1-scFv (3B12A), SEQ ID NO: 80) in slowing the progression of TDP-43ΔNLS-mediated pathology. AAV rh10 containing control or Construct 3 were administered ICV unilaterally at P1/P2 at a volume of 2 ul (maximum 4 ul) in different groups as shown below in Table 17. Except for the control group 1, DOX removal occurred at week 5. Control mice in group
# Body weight was measured twice weekly after weaning. After completion of testing, samples were collected from all surviving mice. Whole brains were collected and split into 2 hemispheres. One hemisphere were weighed and frozen on dry ice. The second hemisphere were post fixed in 4% PFA for histology assessments.
# GFP-TDP43CTF [7] = target: T1, GFP-TDP43CTF; test: Fractionation assay: soluble and insoluble fractions, immunoblot; assay type: cell-based; conditions: GFP-TDP43CTF reporter, HEK293 cells
# Description: Transfected HEK293 cells are homogenized in RIPA buffer (50 mM Tris, pH7.5, 150 mM NaCl, 0.1% NP-40, 0.5% sodium deoxycholate, 0.1% SDS) supplemented with protease inhibitor cocktail, 2 mM PMSF, 10 mM NaF, and 2 mM Na3VO4. After brief sonication, protein concentration is measured by BCA assay kit (Pierce). The equal protein amount is spun down by centrifugation at 16,000×g for 30 minutes at 4° C. to fractionate into soluble fraction (supernatant) and insoluble fraction (pellet). The insoluble fraction is further solubilized in SDS lysis buffer (10 mM Tris, pH8.0, 150 mM NaCl, 2% SDS). Both soluble and insoluble fractions were applied to SDS-PAGE under reducing condition, followed by immunoblotting assay with anti-GFP antibody.
compound,measurement,setting,value
"CO/C1=C\C(C)=C\[C@@H](C)[C@@H](O)[C@@H](C)C/C(C)=C/C=C/[C@H](OC)[C@@H]([C@@H](C)[C@@H](O)[C@H](C)[C@@]2(O)C[C@@H](O)[C@H](C)[C@@H](C(C)C)O2)OC1=O [BFA, Bafilomycin A1]",level of GFP-TDP43CTF reporter in cells co-expressing Construct 3 after BFA treatment,GFP-TDP43CTF [1]; BFA 0.01 μM (10 nM) or 0.1 μM (100 nM),higher levels; also recorded: reappearance of pathogenic TDP43 in a dose dependent manner
CC(C)C[C@@H](C=O)NC(=O)[C@H](CC(C)C)NC(=O)[C@H](CC(C)C)NC(=O)OCc1ccccc1 [MG132] (Cbz-Leu-Leu-Leu-aldehyde),level of GFP-TDP43CTF reporter in cells co-expressing Construct 3 after MG132 treatment,GFP-TDP43CTF [1]; MG132 0.1 μM or 1.0 μM,little to no effect
Construct 3: DnaJB1 J domain fused to scFv(3B12A),reduction of TDP-43 aggregation,GFP-TDP43CTF [2],> 90%
same,aggregation of GFP-TDP43CTF reporter in cells (in words),GFP-TDP43CTF [2],substantially reduced aggregation
same,aggregation of GFP-TDP43CTF reporter in cells (in words),GFP-TDP43CTF [2]; listed as construct 3,dramatically reduced
same,aggregation level in cells expressing GFP-TDP43FL reporter (in words),GFP-TDP43FL [3],modest reduction
same,"amount of GFP-TDP43CTF reporter protein, anti-GFP immunoblot (in words)",GFP-TDP43CTF [4],lower levels
same,"amount of GFP-TDP43CTF reporter protein, anti-GFP immunoblot (in words)",GFP-TDP43CTF [4]; listed as construct 3,marked reduction
same,"levels of the full-length reporter construct (GFP-TDP43FL), anti-GFP immunoblot (in words)",GFP-TDP43FL [5],No differences
same,body weight,[6],No difference in body weight
same,survival at week 10,"human TDP-43ΔNLS; AAV rh10 6 × 10^10 vg ICV at P1, DOX removal at week 5 (FIG. 16C)",100%
same,"body weight compared with Group 2 (AAV control, DOX off)","human TDP-43ΔNLS; males, AAV rh10 6 × 10^10 vg ICV at P1, DOX removal at week 5 (FIG. 16B)",statistically significant weight increase
"Construct 4: Same as construct 3, with a P33Q mutation in the conserved HPD motif",aggregation of GFP-TDP43CTF reporter in cells (in words),GFP-TDP43CTF [2],did not reduce aggregation
same,"levels of the full-length reporter construct (GFP-TDP43FL), anti-GFP immunoblot (in words)",GFP-TDP43FL [5],No differences
Construct 5: Reversed arrangement of J domain and TDP-43 from Construct 3,aggregation of GFP-TDP43CTF reporter in cells (in words),GFP-TDP43CTF [2],dramatically reduced
same,aggregation level in cells expressing GFP-TDP43FL reporter (in words),GFP-TDP43FL [3],modest reduction
Construct 9: Full-length J protein control [reference compound],reduction of TDP-43 aggregation,GFP-TDP43CTF [2],~43%
same,"amount of GFP-TDP43CTF reporter protein, anti-GFP immunoblot (in words)",GFP-TDP43CTF [4],lower levels
Construct 14: J domain from DnaJB1 fused to two tandem copies of QBP1,reduction of TDP-43 aggregation,GFP-TDP43CTF [2],~71%
same,"amount of GFP-TDP43CTF reporter protein, anti-GFP immunoblot (in words)",GFP-TDP43CTF [4],lower levels
Construct 20: Construct 3 containing the dimerization domain from human DnaJA1,"ability to reduce aggregation of GFP-TDP43CTF (in words, with Table 15)",GFP-TDP43CTF [7],potent reduction
